{"source": "patent US20140274782A1", "about": "“AFFINITY REAGENTS AND METHODS FOR DETECTION, PURIFICATION, AND PROTEOMIC ANALYSIS OF METHYLATED PROTEINS” (The Board of Trustees of the Leland Stanford Junior …, priority 2013, published 2014)", "experiment_in_all_cases": "ProtoArray, G9a array SNR minus GST array SNR", "key": {"[1]": {"target": "ARL6IP1, G9a-methylated (human) (UniProt Q15041)"}, "[2]": {"target": "BHMT, G9a-methylated (human) (UniProt Q93088)", "sequence (Q93088 whole entry)": "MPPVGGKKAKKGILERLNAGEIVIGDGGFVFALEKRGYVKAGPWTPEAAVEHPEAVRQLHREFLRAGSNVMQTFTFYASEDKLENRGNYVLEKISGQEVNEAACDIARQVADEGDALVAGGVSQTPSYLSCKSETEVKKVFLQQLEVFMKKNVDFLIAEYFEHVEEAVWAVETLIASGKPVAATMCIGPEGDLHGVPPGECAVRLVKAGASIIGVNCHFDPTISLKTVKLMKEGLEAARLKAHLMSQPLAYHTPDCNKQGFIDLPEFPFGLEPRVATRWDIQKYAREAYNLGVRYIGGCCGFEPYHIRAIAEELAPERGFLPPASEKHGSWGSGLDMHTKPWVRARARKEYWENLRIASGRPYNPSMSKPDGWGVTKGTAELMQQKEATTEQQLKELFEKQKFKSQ"}, "[3]": {"target": "C10orf58, G9a-methylated (human) (UniProt Q9BRX8)", "sequence (Q9BRX8 whole entry)": "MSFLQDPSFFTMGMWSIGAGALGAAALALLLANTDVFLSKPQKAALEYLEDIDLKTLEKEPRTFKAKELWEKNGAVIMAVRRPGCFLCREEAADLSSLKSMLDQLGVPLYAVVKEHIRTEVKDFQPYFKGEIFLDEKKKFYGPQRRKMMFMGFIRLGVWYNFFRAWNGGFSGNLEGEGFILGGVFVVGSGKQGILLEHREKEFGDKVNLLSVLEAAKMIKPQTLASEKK"}, "[4]": {"target": "C12orf23, G9a-methylated (human) (UniProt Q8WUH6)"}, "[5]": {"target": "C1QTNF6, G9a-methylated (human) (UniProt Q9BXI9)"}, "[6]": {"target": "C2orf43, G9a-methylated (human) (UniProt Q9H6V9)"}, "[7]": {"target": "CA13, G9a-methylated (human) (UniProt Q8N1Q1)", "sequence (Q8N1Q1 whole entry)": "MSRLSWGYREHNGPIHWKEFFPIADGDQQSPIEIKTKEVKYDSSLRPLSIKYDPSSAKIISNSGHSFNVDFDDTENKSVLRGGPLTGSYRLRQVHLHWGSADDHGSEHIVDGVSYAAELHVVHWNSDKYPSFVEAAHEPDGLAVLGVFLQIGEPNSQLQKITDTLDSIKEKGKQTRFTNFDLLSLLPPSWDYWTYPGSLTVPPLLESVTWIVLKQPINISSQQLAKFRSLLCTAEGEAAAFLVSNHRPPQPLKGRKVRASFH"}, "[8]": {"target": "CALN1, G9a-methylated (human) (UniProt Q9BXU9)"}, "[9]": {"target": "CCL24, G9a-methylated (human) (UniProt O00175)"}, "[10]": {"target": "CD79A, G9a-methylated (human) (UniProt P11912)"}, "[11]": {"target": "CNTD1, G9a-methylated (human) (UniProt Q8N815)", "sequence (Q8N815 whole entry)": "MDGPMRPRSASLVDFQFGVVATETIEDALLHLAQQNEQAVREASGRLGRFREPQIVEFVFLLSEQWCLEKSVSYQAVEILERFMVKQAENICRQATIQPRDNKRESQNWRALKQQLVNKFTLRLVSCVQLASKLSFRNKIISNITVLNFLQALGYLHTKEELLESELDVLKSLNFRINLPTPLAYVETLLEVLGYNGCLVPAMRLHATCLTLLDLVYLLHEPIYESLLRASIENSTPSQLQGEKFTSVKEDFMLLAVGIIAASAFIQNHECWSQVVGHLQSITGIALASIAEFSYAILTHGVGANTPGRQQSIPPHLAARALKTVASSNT"}, "[12]": {"target": "CRB3, G9a-methylated (human) (UniProt Q9BUF7)", "sequence (Q9BUF7 27-120 limits assumed)": "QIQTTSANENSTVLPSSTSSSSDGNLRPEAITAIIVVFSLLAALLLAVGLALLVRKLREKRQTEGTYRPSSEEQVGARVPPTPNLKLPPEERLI"}, "[13]": {"target": "CTSZ, G9a-methylated (human) (UniProt Q9UBR2)"}, "[14]": {"target": "DGKA, G9a-methylated (human) (UniProt P23743)", "sequence (P23743 whole entry)": "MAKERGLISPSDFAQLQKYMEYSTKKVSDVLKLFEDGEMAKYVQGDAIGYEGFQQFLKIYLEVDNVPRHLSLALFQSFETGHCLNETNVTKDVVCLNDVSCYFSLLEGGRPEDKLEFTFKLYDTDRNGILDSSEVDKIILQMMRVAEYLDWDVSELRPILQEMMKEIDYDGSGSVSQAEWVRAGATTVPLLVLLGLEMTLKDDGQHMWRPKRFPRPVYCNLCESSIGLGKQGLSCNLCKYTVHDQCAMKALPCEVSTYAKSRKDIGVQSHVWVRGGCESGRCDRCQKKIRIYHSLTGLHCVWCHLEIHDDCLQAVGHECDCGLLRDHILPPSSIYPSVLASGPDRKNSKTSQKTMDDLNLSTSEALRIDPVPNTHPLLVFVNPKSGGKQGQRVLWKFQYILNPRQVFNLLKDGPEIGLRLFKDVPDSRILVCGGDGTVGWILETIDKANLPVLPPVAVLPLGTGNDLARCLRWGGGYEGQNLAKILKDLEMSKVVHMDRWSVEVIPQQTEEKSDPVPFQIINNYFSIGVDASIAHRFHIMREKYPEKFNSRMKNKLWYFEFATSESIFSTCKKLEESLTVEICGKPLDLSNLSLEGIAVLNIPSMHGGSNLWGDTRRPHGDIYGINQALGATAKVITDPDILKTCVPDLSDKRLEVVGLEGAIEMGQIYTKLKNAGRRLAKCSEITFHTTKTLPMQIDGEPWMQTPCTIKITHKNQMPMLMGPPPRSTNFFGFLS"}, "[15]": {"target": "DYNC2LI1, G9a-methylated (human) (UniProt Q8TCX1)"}, "[16]": {"target": "FTH1 (hit 109), G9a-methylated (human) (UniProt P02794)"}, "[17]": {"target": "GAL, G9a-methylated (human) (UniProt P22466)"}, "[18]": {"target": "GGPS1, G9a-methylated (human) (UniProt O95749)"}, "[19]": {"target": "GYPC, G9a-methylated (human) (UniProt P04921)", "sequence (P04921 other isoform, or with tags, fused parts or gaps limits assumed)": "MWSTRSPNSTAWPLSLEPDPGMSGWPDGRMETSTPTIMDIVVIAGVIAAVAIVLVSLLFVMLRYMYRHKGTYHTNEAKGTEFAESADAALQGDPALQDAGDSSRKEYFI"}, "[20]": {"target": "HS3ST1, G9a-methylated (human) (UniProt O14792)", "sequence (O14792 21-307 limits assumed)": "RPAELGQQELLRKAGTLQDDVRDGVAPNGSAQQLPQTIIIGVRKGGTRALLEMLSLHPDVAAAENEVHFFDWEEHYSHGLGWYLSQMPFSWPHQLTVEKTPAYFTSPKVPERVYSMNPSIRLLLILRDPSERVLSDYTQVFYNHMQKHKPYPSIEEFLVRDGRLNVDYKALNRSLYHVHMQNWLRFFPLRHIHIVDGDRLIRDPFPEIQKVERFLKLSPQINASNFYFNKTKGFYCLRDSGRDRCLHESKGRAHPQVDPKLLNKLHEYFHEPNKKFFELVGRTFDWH"}, "[21]": {"target": "LTC4S, G9a-methylated (human) (UniProt Q16873)", "sequence (Q16873 whole entry)": "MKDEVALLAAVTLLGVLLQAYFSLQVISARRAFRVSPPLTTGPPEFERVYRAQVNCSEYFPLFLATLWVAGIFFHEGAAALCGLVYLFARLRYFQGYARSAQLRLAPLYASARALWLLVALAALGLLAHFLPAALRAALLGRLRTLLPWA"}, "[22]": {"target": "MGC10433 (RNA-binding protein 42), G9a-methylated (human) (UniProt Q9BTD8)", "sequence (Q9BTD8 whole entry)": "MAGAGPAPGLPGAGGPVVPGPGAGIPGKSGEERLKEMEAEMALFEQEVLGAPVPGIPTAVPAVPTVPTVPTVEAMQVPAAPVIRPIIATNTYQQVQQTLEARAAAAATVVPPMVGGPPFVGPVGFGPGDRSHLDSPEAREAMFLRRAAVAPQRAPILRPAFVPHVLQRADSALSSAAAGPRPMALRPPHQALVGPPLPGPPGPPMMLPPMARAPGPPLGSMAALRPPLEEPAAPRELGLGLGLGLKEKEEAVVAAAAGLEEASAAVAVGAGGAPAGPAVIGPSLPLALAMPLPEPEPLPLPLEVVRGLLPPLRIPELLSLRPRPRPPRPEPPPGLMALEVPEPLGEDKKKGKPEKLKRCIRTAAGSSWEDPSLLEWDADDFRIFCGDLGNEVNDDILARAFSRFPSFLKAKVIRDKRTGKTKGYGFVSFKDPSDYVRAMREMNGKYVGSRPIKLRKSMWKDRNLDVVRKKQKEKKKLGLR"}, "[23]": {"target": "MRPL21, G9a-methylated (human) (UniProt Q7Z2W9)"}, "[24]": {"target": "PSMA8, G9a-methylated (human) (UniProt Q8TAA3)", "sequence (Q8TAA3 whole entry)": "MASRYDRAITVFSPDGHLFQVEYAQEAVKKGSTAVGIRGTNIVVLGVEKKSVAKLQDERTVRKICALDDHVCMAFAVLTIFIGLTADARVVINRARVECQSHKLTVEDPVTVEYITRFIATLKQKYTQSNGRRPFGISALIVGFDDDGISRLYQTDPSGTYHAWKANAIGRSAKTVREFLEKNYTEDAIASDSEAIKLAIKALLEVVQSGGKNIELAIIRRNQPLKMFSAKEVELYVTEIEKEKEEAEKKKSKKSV"}, "[25]": {"target": "RAB33B, G9a-methylated (human) (UniProt Q9H082)", "sequence (Q9H082 whole entry)": "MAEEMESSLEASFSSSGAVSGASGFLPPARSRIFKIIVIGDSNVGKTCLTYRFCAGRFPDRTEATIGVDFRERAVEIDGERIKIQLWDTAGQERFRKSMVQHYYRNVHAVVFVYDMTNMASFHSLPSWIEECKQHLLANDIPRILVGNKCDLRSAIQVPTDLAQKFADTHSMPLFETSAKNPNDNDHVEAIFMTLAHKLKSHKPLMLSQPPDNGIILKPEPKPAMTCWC"}, "[26]": {"target": "SAR1B, G9a-methylated (human) (UniProt Q9Y6B6)", "sequence (Q9Y6B6 whole entry)": "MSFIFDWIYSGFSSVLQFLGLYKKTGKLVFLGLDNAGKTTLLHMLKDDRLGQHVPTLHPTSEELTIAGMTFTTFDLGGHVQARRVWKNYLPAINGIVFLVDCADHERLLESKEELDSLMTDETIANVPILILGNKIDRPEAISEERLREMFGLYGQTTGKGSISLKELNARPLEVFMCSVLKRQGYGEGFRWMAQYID"}, "[27]": {"target": "SEC22B, G9a-methylated (human) (UniProt O75396)"}, "[28]": {"target": "SNFT, G9a-methylated (human) (UniProt Q9NR55)", "sequence (Q9NR55 whole entry)": "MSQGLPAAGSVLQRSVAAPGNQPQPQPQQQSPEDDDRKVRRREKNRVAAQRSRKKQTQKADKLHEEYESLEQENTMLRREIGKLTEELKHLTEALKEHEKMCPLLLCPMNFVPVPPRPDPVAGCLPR"}, "[29]": {"target": "SSR4, G9a-methylated (human) (UniProt P51571)", "sequence (P51571 24-173 limits assumed)": "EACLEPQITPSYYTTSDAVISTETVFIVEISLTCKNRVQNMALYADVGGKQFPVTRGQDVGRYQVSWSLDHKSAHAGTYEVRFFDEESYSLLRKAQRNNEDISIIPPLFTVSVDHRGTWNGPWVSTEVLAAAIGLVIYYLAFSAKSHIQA"}, "[30]": {"target": "STK17B, G9a-methylated (human) (UniProt O94768)", "sequence (O94768 whole entry)": "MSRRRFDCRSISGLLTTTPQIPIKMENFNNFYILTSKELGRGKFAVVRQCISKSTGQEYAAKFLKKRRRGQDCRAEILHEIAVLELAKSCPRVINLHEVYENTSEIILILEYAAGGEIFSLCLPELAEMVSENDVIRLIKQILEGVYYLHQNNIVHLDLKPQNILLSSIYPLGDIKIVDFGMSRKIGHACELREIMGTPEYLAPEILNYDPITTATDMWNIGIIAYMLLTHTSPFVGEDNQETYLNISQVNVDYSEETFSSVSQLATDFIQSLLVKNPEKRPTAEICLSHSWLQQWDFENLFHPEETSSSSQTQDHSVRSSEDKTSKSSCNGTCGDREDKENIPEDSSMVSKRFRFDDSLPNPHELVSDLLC"}, "[31]": {"target": "UBE2S, G9a-methylated (human) (UniProt Q16763)", "sequence (Q16763 whole entry)": "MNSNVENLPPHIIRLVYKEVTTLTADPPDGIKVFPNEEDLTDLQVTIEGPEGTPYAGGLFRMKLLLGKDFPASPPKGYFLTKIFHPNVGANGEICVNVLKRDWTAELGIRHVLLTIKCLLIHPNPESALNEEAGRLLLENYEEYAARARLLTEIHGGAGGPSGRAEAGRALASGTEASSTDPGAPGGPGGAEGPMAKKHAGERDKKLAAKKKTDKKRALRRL"}, "[32]": {"target": "WDR45, G9a-methylated (human) (UniProt Q9Y484)"}, "[33]": {"target": "YPEL5, G9a-methylated (human) (UniProt P62699)", "sequence (P62699 whole entry)": "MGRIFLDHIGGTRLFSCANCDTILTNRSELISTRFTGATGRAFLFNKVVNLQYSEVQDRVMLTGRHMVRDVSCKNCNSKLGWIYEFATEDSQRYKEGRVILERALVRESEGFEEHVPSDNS"}}}
{"substance": "3× Flag-3×MBT (designed binder)", "values": [{"measurement": "G9a-GST", "setting": "[1]", "result": 20.8}, {"measurement": "G9a-GST", "setting": "[2]", "result": 15.2}, {"measurement": "G9a-GST", "setting": "[3]", "result": 16}, {"measurement": "G9a-GST", "setting": "[4]", "result": 12.2}, {"measurement": "G9a-GST", "setting": "[5]", "result": 16.8}, {"measurement": "G9a-GST", "setting": "[6]", "result": 12.1}, {"measurement": "G9a-GST", "setting": "[7]", "result": 12.2}, {"measurement": "G9a-GST", "setting": "[8]", "result": 18.6}, {"measurement": "G9a-GST", "setting": "[9]", "result": 34.4}, {"measurement": "G9a-GST", "setting": "[10]", "result": 14.5}, {"measurement": "G9a-GST", "setting": "[11]", "result": 12.2}, {"measurement": "G9a-GST", "setting": "[12]", "result": 15.5}, {"measurement": "G9a-GST", "setting": "[13]", "result": 12.3}, {"measurement": "G9a-GST", "setting": "[14]", "result": 14.3}, {"measurement": "G9a-GST", "setting": "[15]", "result": 12.4}, {"measurement": "G9a-GST", "setting": "[16]", "result": 37.9}, {"measurement": "G9a-GST", "setting": "[17]", "result": 13.2}, {"measurement": "G9a-GST", "setting": "[18]", "result": 12.8}, {"measurement": "G9a-GST", "setting": "[19]", "result": 13.3}, {"measurement": "G9a-GST", "setting": "[20]", "result": 13.2}, {"measurement": "G9a-GST", "setting": "[21]", "result": 12.9}, {"measurement": "G9a-GST", "setting": "[22]", "result": 14.5}, {"measurement": "G9a-GST", "setting": "[23]", "result": 21.9}, {"measurement": "G9a-GST", "setting": "[24]", "result": 13.9}, {"measurement": "G9a-GST", "setting": "[25]", "result": 20.2}, {"measurement": "G9a-GST", "setting": "[26]", "result": 19.3}, {"measurement": "G9a-GST", "setting": "[27]", "result": 13.4}, {"measurement": "G9a-GST", "setting": "[28]", "result": 17.1}, {"measurement": "G9a-GST", "setting": "[29]", "result": 13}, {"measurement": "G9a-GST", "setting": "[30]", "result": 13.8}, {"measurement": "G9a-GST", "setting": "[31]", "result": 24.7}, {"measurement": "G9a-GST", "setting": "[32]", "result": 15.2}, {"measurement": "G9a-GST", "setting": "[33]", "result": 14.2}]}
